Measurements published in patent US12448423 (Xencor, dated 2025).
Substitutions are numbered along the chain they refer to.

B1: humanized OKT8 variant (H2L1) (antibody)
heavy: QVQLVQSGAEVKKPGASVKVSCKASGFNIKDTYIHWVRQAPGKGLEWMGRIDPANDNTLYASKFQGRVTITADTSINTAYMELSRLRSDDTAVYYCGRGYGYYVFDHWGQGTTVTVSSASTKGPSVFPLAPSSKSTSGGTAALGCLVKDYFPEPVTVSWNSGALTSGVHTFPAVLQSSGLYSLSSVVTVPSSSLGTQTYICNVNHKPSNTKVDKKVEPKSCDKTHTCPPCPAPPVAGPSVFLFPPKPKDTLMISRTPEVTCVVVDVKHEDPEVKFNWYVDGVEVHNAKTKPREEQYNSTYRVVSVLTVLHQDWLNGKEYKCKVSNKALPAPIEKTISKAKGQPREPQVYTLPPSREQMTKNQVKLTCLVKGFYPSDIAVEWESNGQPENNYKTTPPVLDSDGSFFLYSKLTVDKSRWQQGNVFSCSVMHEALHNHYTQKSLSLSPGK
light: DIKMTQSPSSLSASVGDRVTITCRTSRSISQYLAWYQEKPGKTNKLLIYSGSTLQSGIPSRFSGSGSGTDFTLTISSLQPEDFATYYCQQHNENPLTFGAGTKLEIKRTVAAPSVFIFPPSDEQLKSGTASVVCLLNNFYPREAKVQWKVDNALQSGNSQESVTEQDSKDSTYSLSSTLTLSKADYEKHKVYACEVTHQGLSSPVTKSFNRGEC
Fc: EPKSSDKTHTCPPCPAPPVAGPSVFLFPPKPKDTLMISRTPEVTCVVVDVKHEDPEVKFNWYVDGVEVHNAKTKPREEEYNSTYRVVSVLTVLHQDWLNGKEYKCKVSNKALPAPIEKTISKAKGQPREPQVYTLPPSREEMTKNQVSLTCDVSGFYPSDIAVEWESDGQPENNYKTTPPVLDSDGSFFLYSKLTVDKSRWEQGDVFSCSVMHEALHNHYTQKSLSLSPGK
notes: also called OKT8_H2L1
B2: HIS-tagged human NKG2D (receptor, UniProt P26718 73-216, looked up)
chain: IWSAVFLNSLFNQEVQIPLTESYCGPCPKNWICYKNNCYQFFDESKNWYESQASCMSQNASLLKVYSKEDQDLLKLVKSYHWMGLVHIPTNGSWQWEDGSILSPNLLTIIEMQKGDCALYASSFKGYIENCSTPNTYICMQRTV
notes: Captured on HIS1K biosensors; not shown: HIS tag
B3: XENP26231 (antibody, V domains shown)
VH: QVQLVQSGAEVKKPGASVKVSCKASGFNIKDTYIHWVRQAPGKGLEWMGRIDPDNGETLYASKFQGRVTITADTSINTAYMELSRLRSDDTAVYYCGRGYGKYVFDHWGQGTTVTVSS
VL: AIKMTQSPSSLSASVGDRVTITCRTSRSISKYLAWYQEKPGKTNKLLIYSGSTLQSGIPSRFSGSGSGTDFTLTISSLQPEDFATYYCQQHNENPLTFGAGTKLEIK
notes: also called OKT8_H2.154_L1.103 one-arm mAb
B4: XENP26237 (antibody, V domains shown)
VH: B3 VH with G56D, I70M, K102Y
VL: B3 VL
notes: also called OKT8_H2.160_L1.103 one-arm mAb
B5: XENP26239 (antibody, V domains shown)
VH: B3 VH with G56D, K102Y, V104Y
VL: B3 VL
notes: also called OKT8_H2.162_L1.103 one-arm mAb
B6: XENP26238 (antibody, V domains shown)
VH: B3 VH with G56D
VL: B3 VL
notes: also called OKT8_H2.161_L1.103 one-arm mAb
B7: XENP26233 (antibody, V domains shown)
VH: B3 VH with Y100W, K102Y
VL: B3 VL
notes: also called OKT8_H2.156_L1.103 one-arm mAb
B8: XENP26235 (antibody, V domains shown)
VH: B3 VH with I70M, K102Y, V104Y
VL: B3 VL
notes: also called OKT8_H2.158_L1.103 one-arm mAb
B9: XENP26242 (antibody, V domains shown)
VH: B3 VH with G56D, I70M, K102Y, V104Y
VL: B3 VL
notes: also called OKT8_H2.165_L1.103 one-arm mAb
B10: XENP26234 (antibody, V domains shown)
VH: B3 VH with I70M
VL: B3 VL
notes: also called OKT8_H2.157_L1.103 one-arm mAb
B11: XENP26236 (antibody, V domains shown)
VH: B3 VH with I70M, Y100W, K102Y
VL: B3 VL
notes: also called OKT8_H2.159_L1.103 one-arm mAb
B12: XENP26240 (antibody, V domains shown)
VH: B3 VH with G56D, Y100W, K102Y
VL: B3 VL
notes: also called OKT8_H2.163_L1.103 one-arm mAb
B13: XENP26243 (antibody, V domains shown)
VH: B3 VH with G56D, I70M, Y100W, K102Y
VL: B3 VL
notes: also called OKT8_H2.166_L1.103 one-arm mAb
B14: XENP26241 (antibody, V domains shown)
VH: B3 VH with G56D, I70M
VL: B3 VL
notes: also called OKT8_H2.164_L1.103 one-arm mAb
B15: KYK-1.0 (anti-NKG2D antigen binding domain) (antibody, V domains shown)
VH: EVQLVESGGGVVQPGGSLRLSCAASGFTFSSYGMHWVRQAPGKGLEWVAFIRYDGSNKYYADSVKGRFTISRDNSKNTKYLQMNSLRAEDTAVYYCAKDRFGYYLDYWGQGTLVTVSS
VL: QPVLTQPSSVSVAPGETARIPCGGDDIETKSVHWYQQKPGQAPVLVIYDDDDRPSGIPERFFGSNSGNTATLSISRVEAGDEADYYCQVWDDNNDEWVFGGGTQLTVL
notes: also called KYK-1.0[NKG2D]_H1L1

What was measured:
[1] = target: T1, cynomolgus CD8 (captured on the Octet biosensor) (cynomolgus); test: method not stated in the sentence (Octet in the same example)
T1 construct: Construct not described; also called cyno CD8; cyno CD8a

[2] = target: T2, human CD8 (captured on the Octet biosensor) (human, UniProt P01732 22-182, limits assumed); test: Octet (BLI); human CD8 captured, dipped into multiple concentrations of the one-arm mAb
T2 construct: Construct not described; also called recombinant human CD8a
T2 sequence (P01732 22-182 limits assumed): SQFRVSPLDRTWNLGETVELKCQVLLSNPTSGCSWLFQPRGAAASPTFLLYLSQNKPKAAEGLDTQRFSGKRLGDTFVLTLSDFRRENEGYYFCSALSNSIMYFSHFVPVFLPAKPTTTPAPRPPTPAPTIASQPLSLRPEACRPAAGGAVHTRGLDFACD

[3] = target: T1, cynomolgus CD8 (captured on the Octet …); test: Octet (BLI); cynomolgus CD8 captured, dipped into multiple concentrations of the one-arm mAb
XENP27197 = target: T3, XENP27197 (human, UniProt P0DOX7 1-214); test: Octet (BLI): HIS-tagged human NKG2D captured on HIS1K biosensors, dipped into multiple concentrations of the fusion; global fit, 1:1 Langmuir model
T3 construct: scIL-15/Rα x Fab format; also called NKG2D-targeted IL-15/Rα-Fc fusion based on 1D7B4 and IL-15(N4D/N65D) variant

XENP27145 = target: T4, XENP27145 (human); test: as above
T4 construct: also called NKG2D-targeted IL-15(N4D/N65D)/Rα-Fc fusion with targeting arm based on MS

[4] = target: T5, NKG2D (affinity ladder and epitope binning; construct not stated) (UniProt P26718 73-216, limits assumed); test: affinity ladder; method and format not stated
T5 sequence (looked up): B2 chain

| Binder | Kd [2] [nM] | koff [2] [s⁻¹] | kon [2] [M⁻¹ s⁻¹] | Kd [3] [nM] | koff [3] [s⁻¹] | kon [3] [M⁻¹ s⁻¹] | other results |
| --- | --- | --- | --- | --- | --- | --- | --- |
| B1 | 12 | 0.006 | 500000 | 202 | 0.0699 | 347000 | Kd [1]: 200 nM |
| B2 | – | – | – | – | – | – | Kd (XENP27197): 8.66 nM; koff (XENP27197): 0.00325 s⁻¹; kon (XENP27197): 375000 M⁻¹ s⁻¹; Kd (XENP27145): 2.45 nM; koff (XENP27145): 0.00123 s⁻¹; kon (XENP27145): 502000 M⁻¹ s⁻¹ |
| B3 | 95.5 | 0.0226 | 236000 | 95.9 | 0.00887 | 92500 | – |
| B4 | – | – | – | 67.4 | 0.00767 | 114000 | – |
| B5 | – | – | – | 66.6 | 0.00882 | 133000 | – |
| B6 | 96.6 | 0.0262 | 271000 | 107 | 0.00894 | 83900 | – |
| B7 | – | – | – | 66.6 | 0.0133 | 200000 | – |
| B8 | 1.38 | 0.000992 | 718000 | 33.5 | 0.00477 | 143000 | – |
| B9 | – | – | – | 30 | 0.00968 | 322000 | – |
| B10 | 48.2 | 0.0124 | 258000 | 55.6 | 0.00448 | 80600 | – |
| B11 | – | – | – | 55.1 | 0.00672 | 122000 | – |
| B12 | – | – | – | 75.4 | 0.0225 | 298000 | – |
| B13 | 3.14 | 0.00196 | 626000 | 55.9 | 0.0108 | 192000 | – |
| B14 | 55.6 | 0.0148 | 265000 | 67 | 0.00589 | 88000 | – |
| B15 | – | – | – | – | – | – | Kd [4]: 170 nM |
